Measured values from the nanobody polyreactivity screen of Harvey et al. (2022).

Assay: yeast display, Sf9 membrane polyspecificity reagent, FACS + sequencing; frameworks hold sequencing errors
How it was run: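 Polyreactivity labels are assigned by the sorting gate from which each nanobody was recovered. The gates were low and high (top ~1%), set on anti-HA fluorescence for expression and streptavidin fluorescence for reagent binding. Before sorting, galactose-induced (36–48 hours) yeast display cells were stained for 1 hour at 4 °C with 10% biotinylated, detergent-solubilized Sf9 membrane reagent.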

Sequence | polyreactivity (PSR sort gate)
QVQLVESGGGLVQAGGSLRLSCAASGRIFSYNAMGWYRQEPGKERELVASITSGGGRTYYADSVKGRFTISRDYAKNTVYLQMNSLKPVDTAVYYCAADGEVKYDYWGQGTQVTVSS | low polyreactivity
QVQLVESGGGLVQAGGSLRLSCAASGRIFSYNDMGWYRQAPGKERELVAAISWNSGRTYYADSVKGRFTISRDNAKNTVYLQMNSLKPEDTAVYYCNAPYWKSRFRAYYHWGQGTQVTVSS | high polyreactivity
QVQLVESGGGLVQAGGSLRLSCAASGRIFSYYAMGWYRQAPGKERELVAAISNGGNTYYADSVKGRFTISRDNAKNTVYLQMNSLKPEDTAVYYCYVRRYDYWGQGTQVTVSS | high polyreactivity
QVQLVESGGGLVQAGGSLRLSCAASGRIFSYYAMGWYRQAPGKERELVAAITSAGGTNYADSVKGRFTISRDNAKNTVYLQMNSLNPEDTAVYYCAAAKRDFVEYDYWGQGTQVTVSS | low polyreactivity
QVQLVESGGGLVQAGGSLRLSCAASGRIFSYYAMGWYRQAPGKERELVAVISRRGDNTYYADSVKGRFTISRDNAKNTVYLQMNSLKPEDTAVYYCAVQFVFIFYYGYDYWGQGTQVTVSS | high polyreactivity
QVQLVESGGGLVQAGGSLRLSCAASGRIFSYYDIGWYRQAPGKERELVAAITGGGRTIYADSVKGRFTISRDNAKNTVYLQMNILKTEDTAVYYCNARARSRKFYYWGQGTQVTVSS | high polyreactivity
QVQLVESGGGLVQAGGSLRLSCAASGRIFTANAMGCYIQAPGKERELVAAISWRGGSTYYADSVKGRFTISRDNAKNTVYLQMNSLKPEDTAVYYCNKVGATWRQWFGYWGQGTQVTVSS | high polyreactivity
QVQLVESGGGLVQAGGSLRLSCAASGRIFTGNAMGWYRQAPGKERELVAAISRRGTRTYYADSVKGRFTISRDNAKNTVYLQMNSLKPEDTAVYYCATRPGYWRYEYWGQGTQVTVSS | high polyreactivity
QVQLVESGGGLVQAGGSLRLSCAASGRIFTGNVMRWYRQAPGKERELVAAISYGGGSTNYSDSVKGRFTISRDNAKNTVYLQMNSLKQEDTAVYYCAACIKRYLSYYTRYGYWGQGTQVTVSS | high polyreactivity
QVQLVESGGGLVQAGGSLRLSCAASGRIFTGYAMGWYRQAPGKERELVAAINWSGGSTYYADSVKGRFTISRDNAKNTVYLQMNSLKPADTAVYYCNAGYVFSGSYYKYDYWGQGTQVTVSS | high polyreactivity
QVQLVESGGGLVQAGGSLRLSCAASGRIFTGYTMGWYRQAPGKERELVAGITGSSGSTYYADSVKGRFTISRDNAKNTVYLQMNSLKPEDTAVYYCAAGRRYRSVGYGYWGQGTQVTVSS | high polyreactivity
QVQLVESGGGLVQAGGSLRLSCAASGRIFTHNAMGWYRQAPGKERELVAAITSGGRTTYADSVKGRFTFSRDNAKNTVYLQMIRLKPEDTAVYYCNADTGLGSLDFDNRDYWGQGTQVTVSS | low polyreactivity
QVQLVESGGGLVQAGGSLRLSCAASGRIFTHNAMGWYRQAPGKERELVAAITSGGRTTYADSVKGRFTISRDNAKNTVYFQMNSLKPEDTAVYYCNADTGLGSLDFDKRDYWGQGTQVTVSS | low polyreactivity
QVQLVESGGGLVQAGGSLRLSCAASGRIFTINAMGWYRQAPGKERELVAAITGSAASTYYADSVKGRFTISRDNAKNTVYLQMNSLKPEDTAVYYCAAGYRRIPYEYWGQATQVTVSS | high polyreactivity
QVQLVESGGGLVQAGGSLRLSCAASGRIFTIYAMGWYRQAPGKERELVAAISDRGTRTYYADSVKGRFTISRDNAKNTVYLQMNSLKPEDTAVYYCATDALYTYGYDYWGQGTQVTVSS | low polyreactivity
QVQLVESGGGLVQAGGSLRLSCAASGRIFTIYAMGWYRQAPGKERELVATISRRGGSTYYADSVKGRFTISRDNSKNTVYLQMNSLKPEDTAVYYCAAESVITWWAYDYWGQGTQVTVSS | high polyreactivity
QVQLVESGGGLVQAGGSLRLSCAASGRIFTIYVMGWYRPAPGKERELVATITYSSGSTSYADSVKGRFTISRDNAKNTVYLQMNSLKPEDTAVYYCATDIHSVHNNRDKHDYDYWGQGTQVSVSS | low polyreactivity
